Source: patent US20260103529A1, “Amino Acid Sequences Directed Against the Melanocortin 4 Receptor and Polypeptides Comprising the Same for the Treatment of MC4R-Related Diseases and Disorders” (Confo Therapeutics N.V., priority 2022, published 2026)
Like-named read-outs stand apart in the source and are kept apart here.

Legend:
[1] = target: human wild type MC4R (Homo sapiens, UniProt P32245); experiment: cAMP GloSensor assay, MC4R; assay type: cell-based; parameters: Flag; expressed in transfected cells; host or cells: HEK293T
Sequence of human wild type MC4R (P32245 whole entry): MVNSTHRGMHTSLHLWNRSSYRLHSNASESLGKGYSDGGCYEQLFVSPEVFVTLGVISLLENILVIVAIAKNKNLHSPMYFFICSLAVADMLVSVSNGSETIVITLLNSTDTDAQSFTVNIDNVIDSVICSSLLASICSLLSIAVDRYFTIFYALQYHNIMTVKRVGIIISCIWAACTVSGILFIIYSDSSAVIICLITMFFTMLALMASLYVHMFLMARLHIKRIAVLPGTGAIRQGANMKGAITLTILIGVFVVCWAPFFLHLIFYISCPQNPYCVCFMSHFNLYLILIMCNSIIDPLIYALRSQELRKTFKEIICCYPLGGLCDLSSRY
Experimental: (§1) To confirm MC4R activation, dose-dependent nanobody-induced cAMP signaling was assessed (Lance Ultra HTRF). […] Binding of pN162 to the human melanocortin receptor subtypes MC1R, MC2R, MC3R, MC4R or MC5R transiently expressed as Flag-tagged receptors in HEK293T cells was assessed by flow cytometry.
HEK 293T cells were routinely maintained at 37° C., 5% CO2, under humidified atmosphere in Dulbecco's modified Eagle's medium (DMEM, Gibco, cat. no. 41966-029) supplemented with 10% heat-inactivated fetal bovine serum. In preparation of the experiments, cells were plated on poly-L-lysine coated white 96-well plates (Costar: 3917) at the density of 3,00E+04 cells/well. At the moment of seeding, cells were transfected with 25 ng of human MC4R in pcDNA3.1 (+) and 50 ng of p22F GLoSensor plasmid (Promega Corporation), empty pcDNA3.1 (+) vector was added to obtain 100 ng of total DNA, using XtremeGene HP (Roche). To evaluate cross-reactivity of different VHHs for other melanocortin receptors, cells were additionally transfected with 50 ng of DNA encoding one of the three melanocortin receptors MC1R/MC3R/MC5R in pcDNA3.1 (+) and 50 ng of p22F GLoSensor plasmid (Promega Corporation), using XtremeGene HP (Roche). After 24 h post transfection, growing medium was gently removed from the cells and replaced with 90 μl/well of Assay medium (OptiMEM media containing 10% FBS HI with 2% GloSensor reagent (Promega)) in which cells were incubated for 2 h at room temperature in the dark. Next, background luminescence level was recorded using the En Vision 2104 Multilabel Plate Reader (Perkin Elmer). Samples (purified VHH produced in E. coli and/or mammalian cells with or without FC fusion) or benchmark compounds were prepared at 10× working concentration in OptiMEM containing 10% heat-inactivated Fetal Bovine Serum (FBS). After addition of 10 μl of samples luminescence was recorded in a kinetic mode using the En Vision 2104 Multilabel Plate Reader (Perkin Elmer). Data were analyzed using GraphPad Prism 8 by applying nonlinear regression (curve fit).

[2] = target: T1, human MC3R (Homo sapiens, UniProt P41968); experiment: Flow cytometry binding to Flag-tagged receptor in HEK293T cells, MC3R; details: 1 μM
T1 construct: Flag; expressed in transfected cells; host or cells: HEK293T
T1 sequence (P41968 whole entry): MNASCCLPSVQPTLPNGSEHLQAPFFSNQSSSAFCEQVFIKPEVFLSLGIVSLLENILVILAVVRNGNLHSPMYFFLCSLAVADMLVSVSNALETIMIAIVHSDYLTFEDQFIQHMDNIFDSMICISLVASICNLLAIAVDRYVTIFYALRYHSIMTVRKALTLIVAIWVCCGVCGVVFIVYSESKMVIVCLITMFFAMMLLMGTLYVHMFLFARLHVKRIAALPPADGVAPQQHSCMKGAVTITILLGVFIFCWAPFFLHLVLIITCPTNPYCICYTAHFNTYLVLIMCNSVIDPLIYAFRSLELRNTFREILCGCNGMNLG
Experimental: as §1

B1: pN162: agonistic anti-MC4R VHH, SEQ ID NO: 184; parental clone for potency maturation (protein)
VHH: QVQLVESGGGLVQPGGSLRLSCAASGSAFSLNVMGWYRQTPGNQRALVAEITKDGSTNYADSAKGRFTISRDNAKNTVHLQMDSLKPEDTAVYYCKARTGRIVRPLDYWGQGTQVTVSS
modifications: pN0162
For B1, the “reduced potency in cAMP signaling via human MC4R compared to setmelanotide” value ([1]; GloSensor) was 6.7 fold, the “detectable cAMP signaling, MC4R” value ([1]; GloSensor head-to-head receptor subtype comparison) was “only induced detectable signaling on MC4R” and the “potency ranking among agonistic nanobodies” value ([1]; GloSensor, Flag-tagged human wild type MC4R HEK293T cells) was “most potent full agonist nanobody”. The EC50 ([1]; Promega GloSensor, HEK293 transiently transfected, real-time, read-out: cAMP assay (GloSensor)) was 8.4 ± 3.29 nM, the EC50 ([1]; human wild type MC4R in HEK293T cells, read-out: average EC50, real-time cAMP monitoring (GloSensor), MC4R) was 13.2 ± 5.6 nM and the “binding to MC3R by flow cytometry” value [2] was “No binding could be detected”.
